Measured values: patent EP4631959A2, “NOVEL MINIGASTRIN-DERIVED CHOLECYSTOKININ 2 RECEPTOR BINDING MOLECULES FOR IMAGING AND TARGETED RADIOTHERAPY” (priority 2022, dated 2024)
Read-outs that look alike come from different tables or passages of the source. Starred links: 1 amine or outer side, 2 acyl side, 3 side chain; linkers in the order of their positions; H or OH if unused. Non-standard residues stand in square brackets, D forms with d. Residues, ends and D or L forms follow the SMILES beside them. *: point of attachment. Benzoyl(4-SiFtBu2) = CC(C)(C)[Si](F)(c1ccc(C(=O)*)cc1)C(C)(C)C; X1 = CC(C)(C)[Si](F)(c1ccc(C[N+](C)(C)CC(=O)*)cc1)C(C)(C)C; DOTA = O=C(O)CN1CCN(CC(=O)O)CCN(CC(=O)*)CCN(CC(=O)O)CC1; PEG12 = NCCOCCOCCOCCOCCOCCOCCOCCOCCOCCOCCOCCOCCC(=O)O; d(γGlu) = O=C(O)[C@@H](CCC(=O)[*:2])N[*:1]; 1Nal = N[C@@H](Cc1cccc2ccccc12)C(=O)O; Hyp = O=C(O)[C@@H]1C[C@@H](O)CN1; PEG5 = NCCOCCOCCOCCOCCOCCC(=O)O; NMeNle = CCCC[C@H](NC)C(=O)O; PEG4 = NCCOCCOCCOCCOCCC(=O)O; dDap = NC[C@@H](N)C(=O)O

Legend:
[1] = n-Octanol-PBS distribution coefficient (logD7.4); assay type: physicochemical; conditions: for logD7.4 (n ≥ 5), ^177Lu-labeled: pH = 7.4, ^177Lu-labeled
Procedure: Approximately 1 MBq of the labeled tracer was dissolved in 1 mL of a 1/1 mixture (v/v) of phosphate buffered saline (PBS, pH = 7.4) and n-octanol in an Eppendorf tube (1.5 mL). After vigorous mixing of the suspension for 3 min at rt, the vial was centrifuged at 9,000 rpm for 5 min (Biofuge 15, Heraeus Sepatech, Osterode, Germany) and 200 µL aliquots of both layers were measured in a γ-counter. The experiment was repeated at least five times.

[2] = target: T1, Human serum albumin (HSA) (Homo sapiens, UniProt P02768); test: Determination of HSA binding on a Chiralpak HSA column; assay type: in vitro ADME; conditions: for HSA binding [%]: Tab. 8, metal not stated (Fig. 18: ^natLu)
T1 construct: purchased Daicel, Tokyo, Japan H13H-2433
T1 sequence (P02768 25-609): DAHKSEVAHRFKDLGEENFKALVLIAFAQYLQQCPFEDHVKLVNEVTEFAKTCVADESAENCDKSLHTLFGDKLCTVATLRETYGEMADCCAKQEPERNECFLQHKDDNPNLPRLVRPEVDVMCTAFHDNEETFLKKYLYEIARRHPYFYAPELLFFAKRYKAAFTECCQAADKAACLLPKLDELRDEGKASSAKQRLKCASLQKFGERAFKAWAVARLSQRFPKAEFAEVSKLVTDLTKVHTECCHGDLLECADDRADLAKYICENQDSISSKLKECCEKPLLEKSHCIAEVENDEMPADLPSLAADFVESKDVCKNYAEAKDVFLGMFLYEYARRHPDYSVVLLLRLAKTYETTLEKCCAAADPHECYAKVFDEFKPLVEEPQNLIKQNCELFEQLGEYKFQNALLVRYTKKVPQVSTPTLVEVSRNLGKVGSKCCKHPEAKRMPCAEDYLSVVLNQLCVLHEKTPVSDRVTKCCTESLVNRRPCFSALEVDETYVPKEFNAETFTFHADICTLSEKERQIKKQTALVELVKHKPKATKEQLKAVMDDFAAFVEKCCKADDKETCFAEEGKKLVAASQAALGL
Procedure: Human serum albumin (HSA) binding of the CCK-2R-targeted compounds was determined as reported by Valko et al., using a Chiralpak HSA column (50 x 3 mm, 5 µm, H13H-2433, Daicel, Tokyo, Japan) at a constant flow rate of 0.5 mL/min at rt. Therefore, an aq. solution of NH4OAc (pH = 6.9, 50 mM) as mobile phase A and isopropanol as mobile phase B were freshly prepared. In order to calibrate the column prior to the experiments, the retention times of nine reference substances with a HSA binding in the range of 13 to 99% were determined using a gradient of 100% A (0 to 3 min), followed by 80% A (3 to 40 min). Furthermore, all substances tested, were dissolved in a mixture (1/1, v/v) of A and B reaching a final concentration of 0.5 mg/mL. The HSA binding of all rhCCK ligands tested, was determined using the same gradient as for the calibration probes. The non-linear regression of the calibration experiments and the CCK-2R ligands (Fig. 29) was established using the OriginPro 2016G software (Northampton, United States).

[3] = target: T2, CCK-2R (Rattus norvegicus, UniProt P30553); test: Determination of IC50: CCK-2R affinity on AR4-2J cells, competition with [^177Lu]Lu-DOTA-PP-F11N; assay type: binding; conditions: AR4-2J cells
T2 construct: The CCK-2R expressing rat pancreatic tumor cells AR4-2J; host or cells: AR4-2J rat pancreatic tumor cells
T2 sequence (P30553 1-452): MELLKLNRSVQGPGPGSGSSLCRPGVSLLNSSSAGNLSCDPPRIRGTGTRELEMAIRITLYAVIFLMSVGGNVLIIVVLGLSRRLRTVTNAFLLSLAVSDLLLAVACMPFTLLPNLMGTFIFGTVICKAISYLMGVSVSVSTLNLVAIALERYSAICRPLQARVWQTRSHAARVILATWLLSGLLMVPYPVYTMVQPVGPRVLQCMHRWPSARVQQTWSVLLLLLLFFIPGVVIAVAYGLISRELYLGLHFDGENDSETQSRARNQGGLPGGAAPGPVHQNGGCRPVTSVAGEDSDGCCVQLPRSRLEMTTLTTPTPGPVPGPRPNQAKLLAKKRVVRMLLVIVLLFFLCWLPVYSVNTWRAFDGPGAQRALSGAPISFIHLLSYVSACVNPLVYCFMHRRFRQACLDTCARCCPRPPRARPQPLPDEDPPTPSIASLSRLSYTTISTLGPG
Method in brief: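 Competitive displacement of 0.3 pmol/well [177Lu]Lu-DOTA-PP-F11N by compounds (10^-10 to 10^-4 M) on AR4-2J cells in BSA-supplemented medium, 3 h at 37 °C. Free label was collected from medium plus PBS rinse, and cell-bound label was recovered with 1 M NaOH, both measured by γ-counter. Each IC50 was determined twice, in triplicate.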

[4] = ^natLu-labeled, read-out: IC50 [nM] (n = 3), ^natLu-labeled
[5] = read-out: IC50 [nM] (n = 3), ^natLu-labeled, ^natLu-labeled

Row | Compound | logD7.4 (n ≥ 5), ^177Lu-labeled [1] | HSA binding [%] [2] | IC50 [3, 4] | other results
1 | CCCC[C@@H](C(=O)N[C@@H](CC(=O)O)C(=O)N[C@@H](Cc1cccc2ccccc12)C(N)=O)N(C)C(=O)[C@H](Cc1c[nH]c2ccccc12)NC(=O)CCOCCOCCOCCOCCNC(=O)CC[C@@H](NC(=O)CCOCCOCCOCCOCCOCCOCCOCCOCCOCCOCCOCCOCCNC(=O)[C@@H](CNC(=O)c1ccc([Si](F)(C(C)(C)C)C(C)(C)C)cc1)NC(=O)CN1CCN(CC(=O)O)CCN(CC(=O)O)CCN(CC(=O)O)CC1)C(=O)O [DOTA-rhCCK-74, DOTA-dap(SiFA)-(PEG)11-γ-glu-(PEG)3-Trp-(N-Me)Nle-Asp-1-Nal-NH2] ({DOTA}-[dDap](Benzoyl(4-SiFtBu2))[PEG12][d(γGlu)][PEG4]W[NMeNle]D[1Nal]-NH2) | −1.19 ± 0.07 | 87.2% | 12.1 ± 1 nM | 
2 | CCCC[C@@H](C(=O)N[C@@H](CC(=O)O)C(=O)N[C@@H](Cc1cccc2ccccc12)C(N)=O)N(C)C(=O)[C@H](Cc1c[nH]c2ccccc12)NC(=O)CCOCCOCCOCCOCCNC(=O)CC[C@@H](NC(=O)CCOCCOCCOCCOCCOCCOCCOCCOCCOCCOCCOCCOCCNC(=O)CC[C@@H](NC(=O)[C@@H](CNC(=O)c1ccc([Si](F)(C(C)(C)C)C(C)(C)C)cc1)NC(=O)CN1CCN(CC(=O)O)CCN(CC(=O)O)CCN(CC(=O)O)CC1)C(=O)O)C(=O)O [DOTA-rhCCK-76, DOTA-dap(SiFA)-γ-glu-(PEG)11-γ-glu-(PEG)3-Trp-(N-Me)Nle-Asp-1-Nal-NH2] | −1.82 ± 0.09 | 86.2% | 14.2 ± 0.9 nM | logD7.4 (n ≥ 5), ^177Lu-labeled ([1]; listed as [^nat/177Lu]Lu-DOTA-rhCCK-76): -1.82 ± 0.09
3 | CCCC[C@@H](C(=O)N[C@@H](CC(=O)O)C(=O)N[C@@H](Cc1cccc2ccccc12)C(N)=O)N(C)C(=O)[C@H](Cc1c[nH]c2ccccc12)NC(=O)CCOCCOCCOCCOCCNC(=O)CC[C@@H](NC(=O)CCOCCOCCOCCOCCOCCOCCOCCOCCOCCOCCOCCOCCNC(=O)CC[C@@H](NC(=O)[C@@H](CNC(=O)C[N+](C)(C)Cc1ccc([Si](F)(C(C)(C)C)C(C)(C)C)cc1)NC(=O)CN1CCN(CC(=O)O)CCN(CC(=O)O)CCN(CC(=O)O)CC1)C(=O)O)C(=O)O [DOTA-rhCCK-75, DOTA-dap(SiFAlin)-γ-glu-(PEG)11-γ-glu-(PEG)3-Trp-(N-Me)Nle-Asp-1-Nal-NH2] | −1.15 ± 0.05 | 90.9% | 19.2 ± 1.6 nM | logD7.4 (n ≥ 5), ^177Lu-labeled ([1]; listed as [^nat/177Lu]Lu-DOTA-rhCCK-75): -1.15 ± 0.05
4 | CCCC[C@@H](C(=O)N[C@@H](CC(=O)O)C(=O)N[C@@H](Cc1cccc2ccccc12)C(N)=O)N(C)C(=O)[C@H](Cc1c[nH]c2ccccc12)NC(=O)CCOCCOCCOCCOCCNC(=O)[C@@H](CCC(=O)O)NC(=O)CN1CCN(CC(=O)O)CCN(CC(=O)O)CCN(CC(=O)O)CC1 [DOTA-CCK-66.2, DOTA-glu-(PEG)3-Trp-(N-Me)Nle-Asp-1-Nal-NH2] ({DOTA}-[dE][PEG4]W[NMeNle]D[1Nal]-NH2) | −2.69 ± 0.09 |  | 4.8 ± 0.9 nM | logD7.4 (n ≥ 5), ^64Cu-labeled ([1]; pH = 7.4, ^64Cu-labeled): −2.84 ± 0.08; logD7.4 (n ≥ 5), ^67Ga-labeled ([1]; pH = 7.4, ^67Ga-labeled): −2.55 ± 0.04; HSA binding [%], ^natCu-labeled [2]: 61.1%; HSA binding [%], ^natGa-labeled [2]: 54.2%; HSA binding [%], ^natLu-labeled [2]: 72.7%; IC50 ([3]; ^natCu-labeled, read-out: IC50 [nM] (n = 3), ^natCu-labeled): 5.8 ± 0.2 nM; IC50 ([3]; ^natGa-labeled, read-out: IC50 [nM] (n = 3), ^natGa-labeled): 6 ± 1 nM
5 | CCCC[C@@H](C(=O)N[C@@H](CC(=O)O)C(=O)N[C@@H](Cc1cccc2ccccc12)C(N)=O)N(C)C(=O)[C@H](Cc1c[nH]c2ccccc12)NC(=O)CCOCCOCCOCCOCCNC(=O)CC[C@@H](NC(=O)CCOCCOCCOCCOCCOCCNC(=O)CC[C@@H](NC(=O)[C@@H](CNC(=O)c1ccc([Si](F)(C(C)(C)C)C(C)(C)C)cc1)NC(=O)CN1CCN(CC(=O)O)CCN(CC(=O)O)CCN(CC(=O)O)CC1)C(=O)O)C(=O)O [DOTA-rhCCK-68, DOTA-dap(SiFA)-γ-glu-(PEG)4-γ-glu-(PEG)3-Trp-(N-Me)Nle-Asp-1-Nal-NH2] | −1.65 ± 0.09 | 91.2% | 15.4 ± 1.1 nM | IC50 ([3]; read-out: IC50 [nM] (n = 3), ^natGa-labeled, ^natGa-labeled): 36.9 ± 5.4 nM
6 | CCCC[C@@H](C(=O)N[C@@H](CC(=O)O)C(=O)N[C@@H](Cc1cccc2ccccc12)C(N)=O)N(C)C(=O)[C@H](Cc1c[nH]c2ccccc12)NC(=O)CCOCCOCCOCCOCCNC(=O)CC[C@@H](NC(=O)CCOCCOCCOCCOCCOCCOCCOCCOCCNC(=O)CC[C@@H](NC(=O)[C@@H](CNC(=O)C[N+](C)(C)Cc1ccc([Si](F)(C(C)(C)C)C(C)(C)C)cc1)NC(=O)CN1CCN(CC(=O)O)CCN(CC(=O)O)CCN(CC(=O)O)CC1)C(=O)O)C(=O)O [DOTA-rhCCK-71, DOTA-dap(SiFAlin)-γ-glu-(PEG)7-γ-glu-(PEG)3-Trp-(N-Me)Nle-Asp-1-Nal-NH2] | −1.63 ± 0.06 | 89.1% | 13.3 ± 1.3 nM | 
7 | CCCC[C@@H](C(=O)N[C@@H](CC(=O)O)C(=O)N[C@@H](Cc1cccc2ccccc12)C(N)=O)N(C)C(=O)[C@H](Cc1c[nH]c2ccccc12)NC(=O)CCOCCOCCOCCOCCNC(=O)CC[C@@H](NC(=O)CCOCCOCCOCCOCCOCCNC(=O)[C@@H](CNC(=O)C[N+](C)(C)Cc1ccc([Si](F)(C(C)(C)C)C(C)(C)C)cc1)NC(=O)CN1CCN(CC(=O)O)CCN(CC(=O)O)CCN(CC(=O)O)CC1)C(=O)O [DOTA-rhCCK-90, DOTA-dap(SiFAlin)-(PEG)4-γ-glu-(PEG)3-Trp-(N-Me)Nle-Asp-1-Nal-NH2] ({DOTA}-[dDap](X1)[PEG5][d(γGlu)][PEG4]W[NMeNle]D[1Nal]-NH2) | −0.76 ± 0.09 | 94.5% | 9.85 ± 1 nM | 
8 | CCCC[C@@H](C(=O)N[C@@H](CC(=O)O)C(=O)N[C@@H](Cc1cccc2ccccc12)C(N)=O)N(C)C(=O)[C@H](Cc1c[nH]c2ccccc12)NC(=O)CCOCCOCCOCCOCCNC(=O)CC[C@@H](NC(=O)[C@@H]1C[C@@H](O)CN1C(=O)[C@@H]1C[C@@H](O)CN1C(=O)[C@@H]1C[C@@H](O)CN1C(=O)[C@@H]1C[C@@H](O)CN1C(=O)[C@@H]1C[C@@H](O)CN1C(=O)[C@@H]1C[C@@H](O)CN1C(=O)[C@@H]1C[C@@H](O)CN1C(=O)[C@@H]1C[C@@H](O)CN1C(=O)CC[C@@H](NC(=O)[C@@H](CNC(=O)c1ccc([Si](F)(C(C)(C)C)C(C)(C)C)cc1)NC(=O)CN1CCN(CC(=O)O)CCN(CC(=O)O)CCN(CC(=O)O)CC1)C(=O)O)C(=O)O [DOTA-rhCCK-86, DOTA-dap(SiFA)-γ-glu-(Hyp)8-γ-glu-(PEG)3-Trp-(N-Me)Nle-Asp-1-Nal-NH2] ({DOTA}-[dDap](Benzoyl(4-SiFtBu2))[d(γGlu)][Hyp][Hyp][Hyp][Hyp][Hyp][Hyp][Hyp][Hyp][d(γGlu)][PEG4]W[NMeNle]D[1Nal]-NH2) | −1.86 ± 0.06 | 88.1% |  | IC50 [3, 5]: 10 ± 1.4 nM
9 | CCCC[C@@H](C(=O)N[C@@H](CC(=O)O)C(=O)N[C@@H](Cc1cccc2ccccc12)C(N)=O)N(C)C(=O)[C@H](Cc1c[nH]c2ccccc12)NC(=O)CCOCCOCCOCCOCCNC(=O)CC[C@@H](NC(=O)[C@@H]1C[C@@H](O)CN1C(=O)[C@@H]1C[C@@H](O)CN1C(=O)[C@@H]1C[C@@H](O)CN1C(=O)CC[C@@H](NC(=O)[C@@H](CNC(=O)c1ccc([Si](F)(C(C)(C)C)C(C)(C)C)cc1)NC(=O)CN1CCN(CC(=O)O)CCN(CC(=O)O)CCN(CC(=O)O)CC1)C(=O)O)C(=O)O [DOTA-rhCCK-83, DOTA-dap(SiFA)-γ-glu-(Hyp)3-γ-glu-(PEG)3-Trp-(N-Me)Nle-Asp-1-Nal-NH2] ({DOTA}-[dDap](Benzoyl(4-SiFtBu2))[d(γGlu)][Hyp][Hyp][Hyp][d(γGlu)][PEG4]W[NMeNle]D[1Nal]-NH2) | −1.50 ± 0.05 | 93.4% |  | IC50 [3, 5]: 10 ± 0.9 nM
